From patent US20120238503A1
Ends that are not written are not given here.

Molecular target: α3β1 integrin on PC12 cells (rat (PC12 cells)) (UniProt P49134)
Experiment: cell-based or functional assay

Sequence of α3β1 integrin on PC12 cells (rat (PC12 cells)) (P49134 21-798): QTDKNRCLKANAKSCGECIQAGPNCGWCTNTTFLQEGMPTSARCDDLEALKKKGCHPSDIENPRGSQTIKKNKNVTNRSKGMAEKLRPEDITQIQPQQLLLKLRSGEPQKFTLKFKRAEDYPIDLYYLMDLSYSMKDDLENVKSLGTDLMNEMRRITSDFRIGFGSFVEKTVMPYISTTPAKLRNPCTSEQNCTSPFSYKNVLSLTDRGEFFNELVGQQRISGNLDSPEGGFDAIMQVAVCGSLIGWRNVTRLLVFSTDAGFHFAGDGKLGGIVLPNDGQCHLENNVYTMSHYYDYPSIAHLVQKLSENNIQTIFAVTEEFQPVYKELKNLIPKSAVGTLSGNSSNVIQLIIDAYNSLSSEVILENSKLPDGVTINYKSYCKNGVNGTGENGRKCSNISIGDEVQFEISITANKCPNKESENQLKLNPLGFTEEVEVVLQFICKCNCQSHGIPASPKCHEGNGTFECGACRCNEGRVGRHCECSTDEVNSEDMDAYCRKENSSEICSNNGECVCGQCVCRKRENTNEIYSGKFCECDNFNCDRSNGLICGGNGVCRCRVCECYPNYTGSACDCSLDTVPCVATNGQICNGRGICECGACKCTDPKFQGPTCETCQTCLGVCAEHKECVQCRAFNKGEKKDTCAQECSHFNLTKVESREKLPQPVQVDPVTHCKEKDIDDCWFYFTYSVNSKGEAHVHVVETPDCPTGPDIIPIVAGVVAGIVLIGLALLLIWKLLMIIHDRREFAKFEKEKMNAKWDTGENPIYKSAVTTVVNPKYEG

RNIPPFEGCIWN-NH2 [Ln2-LG3-P2 peptide (…)]
inhibition of PC12 cell adhesion to coated rLG3 (25 µg/mL) by soluble peptide: 40 % inhibition
